Experimental data reported in patent US20260008815A1, “CYCLIC PEPTIDE OR SALT THEREOF, AND USES THEREOF” (FUJIFILM Corporation, priority 2023, published 2026).
Bridge positions count the residues as written; N and C are the ends. Ends that are not written are not given here. COCH2 = acetyl group that carries the bridge

Target: T1, Recombinant Human FGFR2 alpha (IIIc) Fc Chimera Protein, CF (R&D systems, 712-FR-050) (human, UniProt P21802 22-377)
T1 construct: bought; not shown: Fc part of the chimera
T1 sequence (P21802 22-377, change not shown): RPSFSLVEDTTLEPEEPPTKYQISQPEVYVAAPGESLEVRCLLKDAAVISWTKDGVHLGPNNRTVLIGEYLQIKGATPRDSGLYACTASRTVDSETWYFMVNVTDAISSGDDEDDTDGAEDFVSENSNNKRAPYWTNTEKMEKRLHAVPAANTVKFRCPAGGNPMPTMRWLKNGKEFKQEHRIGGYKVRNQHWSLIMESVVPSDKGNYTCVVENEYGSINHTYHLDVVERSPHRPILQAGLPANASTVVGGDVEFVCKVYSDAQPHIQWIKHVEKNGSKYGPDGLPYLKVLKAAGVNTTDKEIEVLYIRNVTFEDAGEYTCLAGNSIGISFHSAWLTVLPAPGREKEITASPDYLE
Assay: ELISA on plate-bound FGFR2-Fc
Procedure, shortened: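 Plate-immobilized FGFR2 alpha (IIIc)-Fc (5 ng/well) incubated with peptide 3 h at room temperature, then anti-Myc antibody 2 h and chemiluminescent ELISA substrate. Signal corrected by subtracting FGFR-free wells; binding affinity scored into categories from the dose-response.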

Binder: NCPNYWSQIQWHYFQAYK(COCH2)Q (thioether 2-18) [cyclic peptide SEQ ID NO: 115]
- ELISA luminescence signal at 10 nmol/L peptide, relative to SEQ ID NO: 47 (=1): ≥ 0.7 ratio

Binder: QCRYFWQYVLERYRVRLPK(COCH2)E (thioether 2-19) [cyclic peptide SEQ ID NO: 119]
- ELISA luminescence signal at 10 nmol/L peptide, relative to SEQ ID NO: 47 (=1): ≥ 0.7 ratio

B1: cyclic peptide SEQ ID NO: 40 (peptide)
peptide: DCSGNFFSKEQFHYLELFK(COCH2)K
modifications: thioether 2-19; not fully specified; printed as D-(C)-SGNFFSKEQFHYLELF-(K(acetyl))-K
- ELISA luminescence signal at 10 nmol/L peptide, relative to SEQ ID NO: 47 (=1): ≥ 0.7 ratio

Binder: ECDTADYPQEWIQDVYQYLYK(COCH2)R (thioether 2-21 (inferred)) [cyclic peptide SEQ ID NO: 427]
- ELISA luminescence signal at 10 nmol/L peptide, relative to SEQ ID NO: 47 (=1): 0.1 to 0.5 ratio

Binder: LCEINWLSQEQYGYFIEYK(COCH2)T (thioether 2-19) [cyclic peptide SEQ ID NO: 126]
- ELISA luminescence signal at 10 nmol/L peptide, relative to SEQ ID NO: 47 (=1): ≥ 0.7 ratio

Binder: LCRNYINPQQWRYFALYK(COCH2)Y (thioether 2-18) [cyclic peptide SEQ ID NO: 108]
- ELISA luminescence signal at 10 nmol/L peptide, relative to SEQ ID NO: 47 (=1): ≥ 0.7 ratio

Binder: LCRNYINPQQWRYFALYK(COCH2)N (thioether 2-18) [cyclic peptide SEQ ID NO: 117]
- ELISA luminescence signal at 10 nmol/L peptide, relative to SEQ ID NO: 47 (=1): ≥ 0.7 ratio

Binder: QCYFLSQYILERYKVHK(COCH2)L (thioether 2-17) [cyclic peptide SEQ ID NO: 42]
- ELISA luminescence signal at 10 nmol/L peptide, relative to SEQ ID NO: 47 (=1): ≥ 0.7 ratio

Binder: QCQTDHQQQLYFIYQYLQK(COCH2)I (thioether 2-19) [cyclic peptide SEQ ID NO: 110]
- ELISA luminescence signal at 10 nmol/L peptide, relative to SEQ ID NO: 47 (=1): 0.1 to 0.5 ratio

Binder: DCRDLQLFYIYQYLDALKK (not fully specified; thioether ring (C)-(K(acetyl))) [cyclic peptide SEQ ID NO: 124]
- ELISA luminescence signal at 10 nmol/L peptide, relative to SEQ ID NO: 47 (=1): 0.1 to 0.5 ratio

Binder: CHENYLDPEQYQYFHYFK(COCH2) (thioether 1-18 (inferred)) [cyclic peptide SEQ ID NO: 431]
- ELISA luminescence signal at 10 nmol/L peptide, relative to SEQ ID NO: 47 (=1): 0.1 to 0.5 ratio

B2: cyclic peptide SEQ ID NO: 34 (peptide)
peptide: CRALLRGAPFHLAEC
modifications: disulfide 1-15
notes: also called cyclic peptide reported in WO2000/003245A
- ELISA luminescence signal at 10 nmol/L peptide, relative to SEQ ID NO: 47 (=1): < 0.1 ratio

Binder: CRALLRGAPFHLAEK(COCH2) (thioether 1-15) [cyclic peptide SEQ ID NO: 36]
- ELISA luminescence signal at 10 nmol/L peptide, relative to SEQ ID NO: 47 (=1): < 0.1 ratio

Binder: YCHENYLDPEQYQYFHYFK(COCH2) (thioether 2-19 (inferred)) [cyclic peptide SEQ ID NO: 429]
- ELISA luminescence signal at 10 nmol/L peptide, relative to SEQ ID NO: 47 (=1): 0.1 to 0.5 ratio

Binder: ECQENFVDRQQYWYFLSYK(COCH2)F (thioether 2-19) [cyclic peptide SEQ ID NO: 132]
- ELISA luminescence signal at 10 nmol/L peptide, relative to SEQ ID NO: 47 (=1): ≥ 0.7 ratio

Binder: RCINYWSGQQFYFFQQYK(COCH2)F (thioether 2-18) [cyclic peptide SEQ ID NO: 113]
- ELISA luminescence signal at 10 nmol/L peptide, relative to SEQ ID NO: 47 (=1): 0.1 to 0.5 ratio

Binder: QCYQNWYLYQYLVERYYK(COCH2)D (thioether 2-18) [cyclic peptide SEQ ID NO: 116]
- ELISA luminescence signal at 10 nmol/L peptide, relative to SEQ ID NO: 47 (=1): 0.1 to 0.5 ratio

Binder: HCQPEYELYYIYLYLNALK(COCH2)I (thioether 2-19) [cyclic peptide SEQ ID NO: 112]
- ELISA luminescence signal at 10 nmol/L peptide, relative to SEQ ID NO: 47 (=1): 0.1 to 0.5 ratio

Binder: CHENYLDPEQYQYFHYFK(COCH2)Y (thioether 1-18 (inferred)) [cyclic peptide SEQ ID NO: 430]
- ELISA luminescence signal at 10 nmol/L peptide, relative to SEQ ID NO: 47 (=1): ≥ 0.7 ratio

Binder: LCGNYITPLQWKYFQTYK(COCH2)W (thioether 2-18) [cyclic peptide SEQ ID NO: 41]
- ELISA luminescence signal at 10 nmol/L peptide, relative to SEQ ID NO: 47 (=1): ≥ 0.7 ratio

Binder: CENYLDPEQYQYFHYFK(COCH2)Y (thioether 1-17 (inferred)) [cyclic peptide SEQ ID NO: 432]
- ELISA luminescence signal at 10 nmol/L peptide, relative to SEQ ID NO: 47 (=1): 0.1 to 0.5 ratio

Binder: YCTDNYIDDIQFWYLFLYK(COCH2)Q (thioether 2-19) [cyclic peptide SEQ ID NO: 107]
- ELISA luminescence signal at 10 nmol/L peptide, relative to SEQ ID NO: 47 (=1): 0.5 to 0.7 ratio

Binder: YCTDNYIDDIQFWYLFLYK(COCH2)H (thioether 2-19) [cyclic peptide SEQ ID NO: 114]
- ELISA luminescence signal at 10 nmol/L peptide, relative to SEQ ID NO: 47 (=1): ≥ 0.7 ratio

Binder: YRSRKYSSWYVALKR (not fully specified) [linear peptide SEQ ID NO: 35]
- ELISA luminescence signal at 10 nmol/L peptide, relative to SEQ ID NO: 47 (=1): < 0.1 ratio

Binder: QCENWVNSTQFEFFWQYK(COCH2)T (thioether 2-18) [cyclic peptide SEQ ID NO: 122]
- ELISA luminescence signal at 10 nmol/L peptide, relative to SEQ ID NO: 47 (=1): 0.5 to 0.7 ratio

Binder: ECPWNFVNQLQWQYFITYK(COCH2)V (thioether 2-19) [cyclic peptide SEQ ID NO: 129]
- ELISA luminescence signal at 10 nmol/L peptide, relative to SEQ ID NO: 47 (=1): ≥ 0.7 ratio

Binder: ECDQAQQVYALIYRYLYQLQK(COCH2)V (thioether 2-21 (inferred)) [cyclic peptide SEQ ID NO: 428]
- ELISA luminescence signal at 10 nmol/L peptide, relative to SEQ ID NO: 47 (=1): 0.1 to 0.5 ratio

Binder: DCYWDDQQYSFLQLYK(COCH2)R (thioether 2-16) [cyclic peptide SEQ ID NO: 121]
- ELISA luminescence signal at 10 nmol/L peptide, relative to SEQ ID NO: 47 (=1): ≥ 0.7 ratio

Binder: HCDGNWWNSQQFFYLLLYK(COCH2)H (thioether 2-19) [cyclic peptide SEQ ID NO: 130]
- ELISA luminescence signal at 10 nmol/L peptide, relative to SEQ ID NO: 47 (=1): ≥ 0.7 ratio

B3: cyclic peptide SEQ ID NO: 38 (peptide)
peptide: QCSYLYQYVFERYKVTVPK(COCH2)D
modifications: thioether 2-19; not fully specified; printed as Q-(C)-SYLYQYVFERYKVTVP-(K(acetyl))-D
- ELISA luminescence signal at 10 nmol/L peptide, relative to SEQ ID NO: 47 (=1): ≥ 0.7 ratio

Binder: DCFINELQYFYIQQYKK (not fully specified; thioether ring (C)-(K(acetyl))) [cyclic peptide SEQ ID NO: 109]
- ELISA luminescence signal at 10 nmol/L peptide, relative to SEQ ID NO: 47 (=1): 0.5 to 0.7 ratio

Binder: YCPYNFYNIIQFHYFLTYK(COCH2)T (thioether 2-19) [cyclic peptide SEQ ID NO: 127]
- ELISA luminescence signal at 10 nmol/L peptide, relative to SEQ ID NO: 47 (=1): ≥ 0.7 ratio

Binder: QCQNFITEVQFTYFWHYK(COCH2)T (thioether 2-18) [cyclic peptide SEQ ID NO: 123]
- ELISA luminescence signal at 10 nmol/L peptide, relative to SEQ ID NO: 47 (=1): ≥ 0.7 ratio

B4: cyclic peptide SEQ ID NO: 39 (peptide)
peptide: QCENWLSQDQWKYFWQYK(COCH2)I
modifications: thioether 2-18; not fully specified; printed as Q-(C)-ENWLSQDQWKYFWQY-(K(acetyl))-I
- ELISA luminescence signal at 10 nmol/L peptide, relative to SEQ ID NO: 47 (=1): ≥ 0.7 ratio

Binder: QCQLNYWDDLQFTYYLQYK(COCH2)V (thioether 2-19) [cyclic peptide SEQ ID NO: 37]
- ELISA luminescence signal at 10 nmol/L peptide, relative to SEQ ID NO: 47 (=1): ≥ 0.7 ratio

Binder: LCPVPQQTDYLRWYQIIHK(COCH2)Q (thioether 2-19) [cyclic peptide SEQ ID NO: 118]
- ELISA luminescence signal at 10 nmol/L peptide, relative to SEQ ID NO: 47 (=1): 0.1 to 0.5 ratio

Binder: YCRDNYFYLEQWQYLYLYK(COCH2)H (thioether 2-19) [cyclic peptide SEQ ID NO: 125]
- ELISA luminescence signal at 10 nmol/L peptide, relative to SEQ ID NO: 47 (=1): ≥ 0.7 ratio

Binder: PCVQNYFNDLQWIFLQHYK(COCH2)R (thioether 2-19) [cyclic peptide SEQ ID NO: 128]
- ELISA luminescence signal at 10 nmol/L peptide, relative to SEQ ID NO: 47 (=1): ≥ 0.7 ratio

Binder: QCDQEFYLALYAWTLRSYK(COCH2)L (thioether 2-19) [cyclic peptide SEQ ID NO: 111]
- ELISA luminescence signal at 10 nmol/L peptide, relative to SEQ ID NO: 47 (=1): 0.1 to 0.5 ratio

Binder: QCWYIQQYIWERYFLWHNK(COCH2)E (thioether 2-19) [cyclic peptide SEQ ID NO: 120]
- ELISA luminescence signal at 10 nmol/L peptide, relative to SEQ ID NO: 47 (=1): 0.1 to 0.5 ratio
